In the DeepSol protein solubility set:

Test: soluble on expression in E. coli; label from the status in PepcDB or PDB records

Soluble on expression in E. coli, not soluble:
MGSDKIHHHHHHMTLYLGIDTSAYTTSLAIVDEQAELVYENRKILTVPEGERGLAQSAALFQHVQNLPQLVTAVPPQYWEKVSALGVSTAPRPIQESYMPVFLPGYGVAAAMASARCIPLVETSHQEGHLAAGIASSKLKEPHFLAIHISGGTTELLEVHHTQPGKLDIQLLGGTTDLHAGQFVDRVGVRLGLPFPAGKSLEELARQADPGAAAWLPSAVRGFEVSFSGVETAAQRLIDQGKNPADVARAVEGCIVRTLGKLLQAGMEKTTLSEILIVGGVASNQFIRQELKKRLARHANLHWAEPDWSRDNAIGVALLALEKVRGCII
MGSDKIHHHHHHMTNKNYLLYVDNEKYVLRLPGVMTSNLISRHYEMNNSILMSQAEFNVETIYFNADNGIKITKFLEKGINFNHNNIHQYEYLFLISKELYKLHHSDIQFNNEFNVFETFQQYFDLLKDKNGFFCFNKNIPLIYEFFIKISKNNSFYNIKCPCHNDLVPENILLKNNKLFFIDWEYSGMNAPLFDVAAFFLESRIPKEKQKYFLAHYDHHLDFEKSRMEILFHQFTQDVLWFLWTLIKEENNETFENYASIRINRAYELMKDLVKNEVI
MGSDKIHHHHHHMTNTIMEQEARTAPQKIAGQLAANADLMQQLGEKLRAFDPRFVMIVGRGSSDHAGVFAKYLFEIEVGVPTFAAAPSVASVYGKTLKLEGGLVIVISQSGRSPDILAQARMAKNAGAFCVALVNDETAPIKDIVDVVVPLRAGEEKAVAATKSYLATLSAILQLASAWTQSESLAAAVSSLPQALQTAVVAEPQLTPESVENVKNLVVLGRGLGYAVSKEIALKLKEVCSIHAEAFSSAEFLHGPVTLVEKKLTIVDVCIGDESYASHIEQIENVSQRGADLVHLNQTSTDIHPRVAPLALLQRFYIDVAAVAIARGIDPDQPAGLKKVTQTL
MGSDKIHHHHHHMTPAAVGQLVRTLEDWLGFPLFHRQTNGKNRLVATELAESVLPDIRAGFDKLTLALEKLKQDSLSGVLNIAVSPAFAEKWLLPRIDHFQKQYPDIDIRLDINLKTVDFLEQKVDVGVRYGQGQWQGLEAVKLMDEEVYPVCSPAFLNEHSFLLTPNDLKNITLIHDLSMEKHQQFPGWQSWLKSVGLNDINISRGMQINSSSAVLQAAMEGHGVALARSVMVQKDIQTGRLIRLFPQINFSSPFSYYLVYRPQYANLPKVKICLDWFFEEIHRI
MGSDKIHHHHHHMTPNIYQQLGLKKVINACGKMTILGVSSVAPEVMQATARAASAFVEIDALVEKTGELVSRYTGAEDSYITSCASAGIAIAVAAAITHGDRARVALMPDSSGMANEVVMLRGHNVDYGAPVTSAIRLGGGRIVEVGSSNLATRWQLESAINEKTAALLYVKSHHCVQKGMLSIDDFVQVAQANHLPLIVDAAAEEDLRGWVASGADMVIYSGAKAFNAPTSGFITGRKTWIAACKAQHQGIARAMKIGKENMVGLVYALENYHQGQTTVTAAQLQPVAEAISAIHGLYADIEQDEAGRAIWRIRVRVNASELGLNAQDVEAQLRGGEIAIYARKYQLHQGVFSLDPRTVAEGEMALIVARLREIAEHAAD
MGSDKIHHHHHHMTPTLPDRKQNPPSAPAATVSLRLLEIFMLVAQEGSVSAAANRLNLTQAAVSQAITVLEQALDVKLLDRSVRPPLLTLRGSTALQYAREILAKVHEFEDAMRYSGSGRVPLLRIGMLNSFASTAGAFVLNQLRDIAAEWTVASGFRETCIQALLDRQSDVIITTDETPAPSEIEVFPIFSEPFVAVVPASFDGKTERLQDIADKLDFIHYGHDSHMGSKITNYLKKIGTVPARRYQFDTTDAALHMVAGGFGWAIVTPLIYLKSRVEGSGVRVVPLTRLPIHRTFIVGMRRGEGSDIAQRVRTAAIITLRDVILPQIEAVLPEASKGVSVAEIEPKASTGKRKGSRRDSAGS
MGSDKIHHHHHHMTQKTLPPLNWLRAFEVSARYLNFTHAAEELHLTQGAVSQQIRHLESQLGVALFKRLPRGLGLTEEGQSYLPVVQDAISRLAVGTNEIFGQRQRRPLKVRGSLSFLHFWLAPRLADFRRSHPQVDIRYISNLWVKELDAEDDLEIRWGSGQWAGVEAQRLTRDMLVPVCAPALLAGCPLREPRDLARVPLLHVLGYEEGWGYWLERVGADQVDSSSGLQFDTLVSTLRMAELGLGVALARSSLVEDLLQEGRLVAPFAQRIEASESFFLVRGLGEALSPDAQAFSHWLVAMAHR
MGSDKIHHHHHHMTQMEMARKGVVSDEMKKVAEYEGVDVEIVRQKLAEGRAVLPKNKLHRIERPMIVGEGFSVKVNANIGTSQGFSSLEEEKEKARVAIEYGADSLMVLSTWGDLREIRRAIVEMSPVPVGSVPIYDSAVRSYQMKKNVVDFSEKDFFDMVIAHAEDGIDFMTIHVGVTRRVLDRIKSSRRVLKIVSRGGAIIAGWMIKNNKENPFYEHFDELLDIAKDYDITLSLGDGMRPGAVVDASDAQQFEELFVMGELVERAREKGVQVMLEGPGHVPLNEVEMNVRLMKKIGKGAPIFLLGPLPTDRAMGYDHIACAIGGALAGYYGADFLCYVTPSEHISLPDVEDVREGVIASKIAAIVADVARGNKKAWELEKKMALARKNFDWETMFSLSLGKDVAKKKYEERPYPDKGCSMCGPFCAIKIAEEFS
MGSDKIHHHHHHMTQTDSLPGVQATVQDMGERARRAARVLRSLPTGRKVQALRALAAELRAREAGILAANAQDVQAAEAAGLPAPLVDRLRLSAGALAAIARDVEAVAALPDPVGEQTDEKTLPSGIRVSQRRVPLGVLGVIYESRPNVTVDVAALALMSGNAAILRGGKETVNSNAALEDAIHAALNREGLPADAVQVIRDPDRARMLELLRLDESVDAIIPRGGAGLHRFCVENATVPVIVGGIGVVHIYLDGSFVQTPQDVQIAAALIRNAKTQKPSACNALDTLLIDRAALAALPDVVRPLLESGVEVRADAEAQAALAGAGLNVTSAQLGDYGTEFLALVASLRTVSGLDEALDFIAERGGHTDVILTRDPAQAERFVQDVDSAAVMVNVSPRFNDGGQLGLGAEVAISTQKLHARGPMGLRELTTSKWVVRGEGQVRD
MGSDKIHHHHHHMTRRGMEFYEKAQELVKGFDIFQNQYANPEEEKDEFSIASQHYDFLPPTITAFSERYPDYKNFRIFESTTVQILDEVAQGHSEIGIIYLNNQNKKGIMQRVEKLGLEIIELISFHTHIYLREGHPLAQKEELVMEDLADLPTVRFTQEKDEYLYYSENFVDTSASSQMFNVTDRATLNGILERTDAYATGSGFLDSDSVNGITVIRLKDNLDNRMVYVKREEVELSQAGTLFVEVMQEYFNQKRKS
MGSDKIHHHHHHMTSNGQQGKPNLPEKDNLPRELGTQRINSPIARMGMFGAKTTGDTSGYGRLRVYRHVPAAAQRPYSDPSDPRTAYFDEVADALERSLKEIGTPYDTAISRVVVDRGEITFHVQREHLLDVATRLRDDPALRFELCLGVTGVHYPEDEGNELHAVYALRSITHNYEIRLEVSCPDSDPHIPSIVSVYPTNDWHEREAWDFFGIIFDGHPALTRIHMPDDWHGHPQRKDYPLGGIPVEYRGAKVPPPDQRRSYA
MGSDKIHHHHHHMTSPHSFSVTPIRTMADGTIKQIHPFTGTEVWTVPGRGNRPLSHPASTIVELSAHDHTSYCAFCSDNMLSTPPEKSRIIIDSSGDFDILPGALPGELSETTPEFRRVPNLFEIVSFDYWHQNFGFDMDSETAMRMAQYLAIPEGREHVLAIVRTRLSAAGEDPAHMTDGELLEKAPSYFAGGHDVIIGRRHFVDDATTSDQLASSGTLTVKEHEAFIRLTVDGIRDLYHRNRYAPYVVAFQNWLKPAGASFDHLHKQLVAIDERGRLIADELHHLRGNPNMYNELAVDYAGYHNLIIAENDHAVAFAGFGHRYPTIEIYSKSAIPEPWLQSDEEIQAMSNLIHACHAATGADVPCNEEWVHKPIDVDMPMPWHVMIKWRVSTLAGFEGGTKVYLNTLSPHKVRDRVVKEMYRLRDEELIASDLRIAMECSVERNSLKYNPLL
MGSDKIHHHHHHMTTDNAKAQLTSSSGGNIIVVSNRLPVTITKNSSTGQYEYAMSSGGLVTALEGLKKTYTFKWFGWPGLEIPDDEKDQVRKDLLEKFNAVPIFLSDEIADLHYNGFSNSILWPLFHYHPGEINFDENAWLAYNEANQTFTNEIAKTMNHNDLIWVHDYHLMLVPEMLRVKIHEKQLQNVKVGWFLHTPFPSSEIYRILPVRQEILKGVLSCDLVGFHTYDYARHFLSSVQRVLNVNTLPNGVEYQGRFVNVGAFPIGIDVDKFTDGLKKESVQKRIQQLKETFKGCKIIVGVDRLDYIKGVPQKLHAMEVFLNEHPEWRGKVVLVQVAVPSRGDVEEYQYLRSVVNELVGRINGQFGTVEFVPIHFMHKSIPFEELISLYAVSDVCLVSSTRDGMNLVSYEYIACQEEKKGSLILSEFTGAAQSLNGAIIVNPWNTDDLSDAINEALTLPDVKKEVNWEKLYKYISKYTSAFWGENFVHELYSTSSSSTSSSATKN
MGSDKIHHHHHHMTTDYRLTSDADREAFYQLYQYAFNNHDTPARRRFFMDRYQHGWIYGRHDHGQLVSGLYSLPLAVNFHGVTYRMNGIGDVMSAPEYAGQGGAGQLLTTALTEMAANHVTLSYLAPFAYGYYRRFGYEHVFNHAHQVMAAPDLPRVKPTDWSGTITRYGNDGLAQINDFYARQPQNQCGGLIRPAWWQHYLTLKHHWSVAIYRNAAANIEGYLIYERQATNFAIQEWVTSTPTAFERLANFITKHGTTFETFSYDSPSATNGLDLLADPYRLKVTVQPYMMARIVDLYDFIKRYPFLTDIQPIRLAVSDATLPANQGIWSLTRHNGQVTLNRVSDQLTGPADIQLTIQQLTTACFGTQSLARAYQHGLITGDVNAINRLDTSLVKERPALIDYF
MGSDKIHHHHHHMTTEFKGQTIPPMHTGGQGAVTGQRFLDRLRQNPPTLYIDGQRVADPTTHPSTRNMCQSLAGLYDLQFQEDLKETLTYEDGGKRYARSFMVPRTKDDLRLIAESHRIRANYGLGFLGRAPDYMNANVMAAGAGAEYFNGCSAAVPGDPKRDFAANMRRYYEYVQGNDLCLTHALTNPQVNRSKMASELPDPYIALGIVEETDEGVIVRGARMMATLPIADEILIFPSTVLKENADKSRYAMGFGIPTNTPGLSFQCREPIDVGRDPEDHPLSSRFDEQDAFVIFDDVLVPWERIFLLYDVELANKAYAGTDAVLHMAYQVVNLKIAKTEAFLGTAQSIVNAIGSGGFQHVQAKIAEIIIMLEIMKALEVAAREQAEPNDYGVMTPARAPLDAARNYYPANHARLPELLQLLGASGIIMMPSKADREGPLGPQIAKYLQTGNANADERLRLFRLAWDMSMSSFAGRQELYERYFFGDPVRMHSALYEVYDSSEAVARIGEFLQRK
MGSDKIHHHHHHMTVSMEQLEAFVAAAEHGSFSAAGRALRKAQSAVSTQVSNLEEDLGLELFSRQGRNPTLTAAGERLLSEARLILDRREHLIGVAASFEAHVEKRLVVAIDELYPEHALGELFAEFAVHFPHVELELLFPMMEDVSRLVLDGKADIGVMWRQEDLPAELGFHTIGWVQLKLVCGRNHPLANAVVGWEDLKRHRQIMVTVRTEGMERHRLRVAAEVWWVESHWVILQILKQGIGWALIPAHILARSPVAQDLAIPALQFDDGAHPVALELVWHKQRPSGPAATWLRKRFATTKIDMVAE
MGSDKIHHHHHHMTVTDLSKKPLLLLDHVTMQFGGLVAVDDFTNEIREGELVGLIGPNGAGKTTVFNVITGIYTPTKGRIVFNDIDITGLRPYQITHLGIARTFQNIRLFSDMTVLENVLVAQHHVLSNPDADRILVKHGKPRKGHGRFWFWRAVTKIGYLKKEKEMVERAKDLIKRVGLEKVMYEKASSLPYGEQRKLEIARALATEPKLILLDEPAAGMNPKETEDLMEFIKQIRKDFNLTVLLIEHDMKVVMGICERIIVMDYGRIIAEGTPKEIQNDPRVIEAYLGREWESV
